{"source": "paper doi:10.1101/2023.01.24.525215", "binders": {"B1": {"name": "PDF1.2 w-box probe (dsDNA)", "DNA 1": "ATAATTATTCTTGACTGATGTATGCATATA", "DNA 2": "TATATGCATACATCAGTCAAGAATAATTAT"}, "B2": {"name": "PR1 w-box probe (dsDNA)", "DNA 1": "TTTATTTGAAAATTGACTGTAGATATAAAC", "DNA 2": "GTTTATATCTACAGTCAATTTTCAAATAAA"}, "B3": {"name": "PDF1.2 as-1 probe (dsDNA)", "DNA 1": "ATGTTGTATTTGTTCGACGATGACGAAGGT", "DNA 2": "ACCTTCGTCATCGTCGAACAAATACAACAT"}}, "assay_in_all_cases": "EMSA", "key": {"[1]": {"target": "CAM5 (Arabidopsis thaliana, UniProt Q682T9 1-149)"}, "[2]": {"target": "T1, WRKY53 (Arabidopsis thaliana, UniProt Q9SUP6 1-324)", "T1 sequence": "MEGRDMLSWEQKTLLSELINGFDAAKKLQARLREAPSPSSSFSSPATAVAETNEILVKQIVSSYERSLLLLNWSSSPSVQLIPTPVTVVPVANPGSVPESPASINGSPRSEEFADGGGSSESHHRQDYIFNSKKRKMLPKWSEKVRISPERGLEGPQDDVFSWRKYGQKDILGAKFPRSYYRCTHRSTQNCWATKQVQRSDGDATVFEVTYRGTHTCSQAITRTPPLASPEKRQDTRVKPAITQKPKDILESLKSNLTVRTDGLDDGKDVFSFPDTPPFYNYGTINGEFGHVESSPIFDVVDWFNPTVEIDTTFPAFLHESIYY"}, "[3]": {"target": "T2, TGA5 (Arabidopsis thaliana, UniProt Q39163 1-330)", "T2 sequence": "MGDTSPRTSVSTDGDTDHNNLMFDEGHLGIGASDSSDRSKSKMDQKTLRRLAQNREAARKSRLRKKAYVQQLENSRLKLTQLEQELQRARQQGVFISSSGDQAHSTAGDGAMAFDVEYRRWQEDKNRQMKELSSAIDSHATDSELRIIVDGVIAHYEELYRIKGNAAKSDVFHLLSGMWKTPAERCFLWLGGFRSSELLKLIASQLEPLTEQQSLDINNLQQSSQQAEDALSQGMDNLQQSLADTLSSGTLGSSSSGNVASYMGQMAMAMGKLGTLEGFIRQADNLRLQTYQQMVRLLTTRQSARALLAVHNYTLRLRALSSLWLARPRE"}}}
{"binder": "B1", "values": [{"measurement": "binding result", "setting": "[1]", "value": "no binding"}, {"measurement": "binding result", "setting": "[2]", "value": "binds"}]}
{"binder": "B2", "values": [{"measurement": "binding result", "setting": "[3]", "value": "binds"}, {"measurement": "binding result", "setting": "[1]", "value": "no binding"}, {"measurement": "binding result", "setting": "[2]", "value": "binds"}]}
{"binder": "B3", "values": [{"measurement": "binding result", "setting": "[3]", "value": "binds"}, {"measurement": "binding result", "setting": "[2]", "value": "no binding"}]}
